Source: PMC3871824, “In vitro binding of Sorghum bicolor transcription factors ABI4 and ABI5 to a conserved region of a GA 2-OXIDASE promoter: possible role of this interaction in the expression of seed dormancy”

Columns and labels:
SbABI5 (rABI5) [1] = biological target: T1, SbABI5 (rABI5) (Sorghum bicolor (inbred line IS9530), UniProt C5XSV4 1-346); assay: EMSA; 25 mM Tris-HCl pH 7.4, 30 mM KCl, 3 mM MgCl2, 0.5 mM EDTA, 14 mM 2-mercaptoethanol, 1 mM DTT, 10% glycerol, 0.05% NP-40, 10 ug/ml BSA, 50 ug/ml salmon sperm DNA, 40 ng probe, 30 min, room temperature; settings: protein: recombinant; tags: C-terminal His (pET24a); chain copies: 2; label: 5'-biotin on strand 1; blunt
T1 sequence: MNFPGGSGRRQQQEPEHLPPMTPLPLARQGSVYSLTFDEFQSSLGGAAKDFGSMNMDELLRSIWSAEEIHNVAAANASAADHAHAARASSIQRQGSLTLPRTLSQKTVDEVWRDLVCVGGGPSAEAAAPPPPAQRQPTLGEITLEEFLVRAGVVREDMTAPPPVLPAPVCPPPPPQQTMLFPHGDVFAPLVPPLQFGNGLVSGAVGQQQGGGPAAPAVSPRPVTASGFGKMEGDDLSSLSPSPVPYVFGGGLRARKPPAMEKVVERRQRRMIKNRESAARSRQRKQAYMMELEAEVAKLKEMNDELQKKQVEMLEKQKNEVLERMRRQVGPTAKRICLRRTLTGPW

SbABI4 (rABI4) [2] = biological target: T2, SbABI4 (rABI4) (Sorghum bicolor (inbred line IS9530), UniProt A0A1B6P7N1 1-257); assay: EMSA; additional retarded complex; 25 mM Tris-HCl pH 7.4, 30 mM KCl, 3 mM MgCl2, 0.5 mM EDTA, 14 mM 2-mercaptoethanol, 1 mM DTT, 10% glycerol, 0.05% NP-40, 10 ug/ml BSA, 50 ug/ml salmon sperm DNA, 40 ng probe, 30 min, room temperature; settings: protein: recombinant; tags: C-terminal His (pET24a); label: 5'-biotin on strand 1; blunt
T2 sequence (A0A1B6P7N1 entry or part of it): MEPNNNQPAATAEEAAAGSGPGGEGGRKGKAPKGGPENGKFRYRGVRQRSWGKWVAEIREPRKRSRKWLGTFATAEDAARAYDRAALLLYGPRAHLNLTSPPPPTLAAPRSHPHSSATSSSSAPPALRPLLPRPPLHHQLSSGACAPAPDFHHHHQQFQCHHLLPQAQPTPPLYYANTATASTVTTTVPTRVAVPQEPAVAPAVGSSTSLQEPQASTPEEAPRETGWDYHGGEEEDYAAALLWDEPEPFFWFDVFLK

SbABI4 (rABI4) [3] = biological target: T2, SbABI4 (rABI4); assay: competition; 200-600 ng vs 40 ng N1; no effect; 25 mM Tris-HCl pH 7.4, 30 mM KCl, 3 mM MgCl2, 0.5 mM EDTA, 14 mM 2-mercaptoethanol, 1 mM DTT, 10% glycerol, 0.05% NP-40, 10 ug/ml BSA, 50 ug/ml salmon sperm DNA, 40 ng probe, 30 min, room temperature; settings: protein: recombinant; tags: C-terminal His (pET24a); blunt
SbABI5 (rABI5) [4] = biological target: T1, SbABI5 (rABI5); assay: as above; settings: protein: recombinant; tags: C-terminal His (pET24a); chain copies: 2; blunt
SbABI4 (rABI4) [5] = biological target: T2, SbABI4 (rABI4); assay: EMSA; five complexes; 25 mM Tris-HCl pH 7.4, 30 mM KCl, 3 mM MgCl2, 0.5 mM EDTA, 14 mM 2-mercaptoethanol, 1 mM DTT, 10% glycerol, 0.05% NP-40, 10 ug/ml BSA, 50 ug/ml salmon sperm DNA, 40 ng probe, 30 min, room temperature; settings: protein: recombinant; tags: C-terminal His (pET24a); label: 5'-biotin on strand 1; blunt
SbABI5 (rABI5) [6] = biological target: T1, SbABI5 (rABI5); assay: EMSA; four complexes; 25 mM Tris-HCl pH 7.4, 30 mM KCl, 3 mM MgCl2, 0.5 mM EDTA, 14 mM 2-mercaptoethanol, 1 mM DTT, 10% glycerol, 0.05% NP-40, 10 ug/ml BSA, 50 ug/ml salmon sperm DNA, 40 ng probe, 30 min, room temperature; settings: protein: recombinant; tags: C-terminal His (pET24a); chain copies: 2; label: 5'-biotin on strand 1; blunt

B1: SbGA2ox3 probe a (intact ABRE and CE) (dsDNA)
DNA 1: GGGCGCCGTGGGAAAACTGCTATTGGCCGGCGTGCCATCGCCTCGTATCGTATGCGTCTCCCATGGAGCCATGCATGCAGCGCGGCGGGCCGACCTGCCACCGGTGGATCGCGTCCGGACACGTCGCGCCC
DNA 2: GGGCGCGACGTGTCCGGACGCGATCCACCGGTGGCAGGTCGGCCCGCCGCGCTGCATGCATGGCTCCATGGGAGACGCATACGATACGAGGCGATGGCACGCCGGCCAATAGCAGTTTTCCCACGGCGCCC
B1: binds (SbABI5 (rABI5) [1]); binds (SbABI4 (rABI4) [2]).

B2: SbGAMyb non-specific competitor 183 bp (dsDNA)
DNA 1: TCTGGGAAGAACCAACAACCATCGGTCCGAAGTTCAAGTTCTTCTGCTGGCACACCTTGTGAGACTACTACGGTGGTTAGCCCAGAGTTTGATATGGGCCAGGAATATTGGGAAGAACAGCCTGGTTCTTTCCTCAGTGAATATGCTCATTTTAGTGGAAATTCTTTGACCGAATCCACTCCT
DNA 2: AGGAGTGGATTCGGTCAAAGAATTTCCACTAAAATGAGCATATTCACTGAGGAAAGAACCAGGCTGTTCTTCCCAATATTCCTGGCCCATATCAAACTCTGGGCTAACCACCGTAGTAGTCTCACAAGGTGTGCCAGCAGAAGAACTTGAACTTCGGACCGATGGTTGTTGGTTCTTCCCAGA
B2: no binding (SbABI4 (rABI4) [3]); no binding (SbABI5 (rABI5) [4]).

B3: AtEm6 promoter probe 186 bp (dsDNA)
DNA 1: AGTTAAAGAACACGCGGCGAAGAAGTACGGCCACTACCACGTTCAAAGTATACGTCAGCTAATAAAGTCAGACACGTGGCATGTCACCAAGAAAGAAGAGCATACGTATGACGTACCGATTGTCCCTGAGTCACCACGTCGAACATCCACGATGCAACACAACCAAAACGCCCTCCGGATTGA
DNA 2: TCAATCCGGAGGGCGTTTTGGTTGTGTTGCATCGTGGATGTTCGACGTGGTGACTCAGGGACAATCGGTACGTCATACGTATGCTCTTCTTTCTTGGTGACATGCCACGTGTCTGACTTTATTAGCTGACGTATACTTTGAACGTGGTAGTGGCCGTACTTCTTCGCCGCGTGTTCTTTAACT
B3: binds (SbABI4 (rABI4) [5]); binds (SbABI5 (rABI5) [6]).
